Results as given in IntAct's records for PubMed 11248247.

B1: Twist-related protein 1 (Homo sapiens), Q15672 (parent)
chain: MMQDVSSSPVSPADDSLSNSEEEPDRQQPPSGKRGGRKRRSSRRSAGGGAGPGGAAGGGVGGGDEPGSPAQGKRGKKSAGCGGGGGAGGGGGSSSGGGSPQSYEELQTQRVMANVRERQRTQSLNEAFAALRKIIPTLPSDKLSKIQTLKLAARYIDFLYQVLQSDELDSKMASCSYVAHERLSYAFSVWRMEGAWSMSASH

Variants of: B1
Details: with TCF3, P15923-1
Chain of TCF3, P15923-1 (P15923 whole entry): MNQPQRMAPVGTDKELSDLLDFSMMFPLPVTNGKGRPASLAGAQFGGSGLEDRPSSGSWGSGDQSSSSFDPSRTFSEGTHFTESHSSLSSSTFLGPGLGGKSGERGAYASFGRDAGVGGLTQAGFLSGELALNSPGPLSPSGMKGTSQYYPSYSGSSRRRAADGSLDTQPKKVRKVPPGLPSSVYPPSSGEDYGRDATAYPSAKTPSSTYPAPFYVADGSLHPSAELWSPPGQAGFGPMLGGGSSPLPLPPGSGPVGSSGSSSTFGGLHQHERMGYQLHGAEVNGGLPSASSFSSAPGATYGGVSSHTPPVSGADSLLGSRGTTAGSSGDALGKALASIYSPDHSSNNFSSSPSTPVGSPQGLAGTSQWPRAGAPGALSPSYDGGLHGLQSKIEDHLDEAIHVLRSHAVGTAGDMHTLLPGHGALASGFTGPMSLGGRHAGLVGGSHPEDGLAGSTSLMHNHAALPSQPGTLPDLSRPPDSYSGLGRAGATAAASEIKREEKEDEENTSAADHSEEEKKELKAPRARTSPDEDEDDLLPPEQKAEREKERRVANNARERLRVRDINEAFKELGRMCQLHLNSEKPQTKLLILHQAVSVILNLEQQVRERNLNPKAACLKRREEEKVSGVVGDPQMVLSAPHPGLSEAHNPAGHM

effect of a mutation on the interaction	Variant
with no effect	MMQDVSSSPVSPADDSLSNSEEEPDRQQPPSGKRGGRKRRSSRRSAGGGAGPGGAAGGGVGGGDEPGSPAQGKRGKKSAGCGGGGGAGGGGGSSSGGGSPQSYEELQTQRVMANVRERQRTQSLNEAFAALRKIIPTLPSDKLRKIQTLKLAARYIDFLYQVLQSDELDSKMASCSYVAHERLSYAFSVWRMEGAWSMSASH [S144R]
decreasing interaction strength	MMQDVSSSPVSPADDSLSNSEEEPDRQQPPSGKRGGRKRRSSRRSAGGGAGPGGAAGGGVGGGDEPGSPAQGKRGKKSAGCGGGGGAGGGGGSSSGGGSPQSYEELQTQRVMANVRERQRTQSLNEAFAALRKIIPTLPSDKLSEIQTLKLAARYIDFLYQVLQSDELDSKMASCSYVAHERLSYAFSVWRMEGAWSMSASH [K145E]
with no effect	MMQDVSSSPVSPADDSLSNSEEEPDRQQPPSGKRGGRKRRSSRRSAGGGAGPGGAAGGGVGGGDEPGSPAQGKRGKKSAGCGGGGGAGGGGGSSSGGGSPQSYEELQTQRVMANVRECQRTQSLNEAFAALRKIIPTLPSDKLSKIQTLKLAARYIDFLYQVLQSDELDSKMASCSYVAHERLSYAFSVWRMEGAWSMSASH [R118C]

Variants of: B1
Details: with TCF3, P15923-1
Remark: another data set of the same source

effect of a mutation on the interaction	Variant
with no effect	MMQDVSSSPVSPADDSLSNSEEEPDRQQPPSGKRGGRKRRSSRRSAGGGAGPGGAAGGGVGGGDEPGSPAQGKRGKKSAGCGGGGGAGGGGGSSSGGGSPQSYEELQTQRVMANVRERQRTQSLNEAFAALRKIIPTLPSDKLSEIQTLKLAARYIDFLYQVLQSDELDSKMASCSYVAHERLSYAFSVWRMEGAWSMSASH [K145E]
